The target in one assay is PRO87299(ECD)-Fc (human). The assay is described as follows: Biacore; PRO87299(ECD)-Fc amine coupled (~9000 RU), HVEM injected at 2µg/ml, against the PR04346-Fc control flow cell.
A further assay addresses LIGHT expressed on cells. Description: radioligand binding to transfected cells, Scatchard analysis.
Assay [1] concerns the target PRO87299/LIGHT expressed together on cells (human). Description: radioligand binding to cells expressing PRO87299 and LIGHT together, Scatchard analysis.
Assay [2] deals with HVEM expressed on transfected 293 cells. Description: radioligand binding to transfected cells, Scatchard analysis.
Another assay concerns the target HVEM-Fc. Description: Biacore; HVEM-Fc amine coupled (~7500 RU), 8nM PRO87299(ECD)-Fc, read 105 seconds after injection. For orientation: In SPR one partner is held on a chip, and binding of the other changes the refractive index at the surface.
The target in assay [3] is HVEM expressed on transfected 293 cells. The assay is described as follows: radioligand binding to transfected cells, displacement with unlabelled protein, Scatchard analysis.

Broadly, the Kd is the equilibrium constant for the complex coming apart. A higher Kd goes with a looser complex.

Turning to “HVEM (protein of the SPDI protein library) (receptor)”, the response units over control (response units) with PRO87299(ECD)-Fc (human) is 1200.
In the case of HVEM-Fc (Fc fusion), the Kd turned out to be 7 nM in the assay with LIGHT expressed on cells and 0.5 nM in assay [1].
Substance I-125-LIGHT-FLAG (ligand) gave a Kd in assay [2] of 2.5 nM. In other words, the single-digit nanomolar range.
PRO87299(ECD)-Fc (Fc fusion): the response units with HVEM-Fc worked out at 100 RU. The same substance yielded a Kd in assay [3] of 25 nM.
